In the supplement of paper PMC11246515:
± gives the standard deviation of the averaged measurements.

Test: total protein half-life in vivo (active degradation + dilution); higher = more stable protein
[1] = E. coli NCM3722 delta-clpP delta-lon delta-hslV, growth: N-lim chemostat, doubling time 6 h
[2] = E. coli NCM3722 delta-hslV, growth: N-lim chemostat, doubling time 6 h
[3] = E. coli NCM3722 delta-lon, growth: N-lim chemostat, doubling time 6 h
[4] = E. coli NCM3722 delta-smpB, growth: N-lim chemostat, doubling time 6 h
[5] = wild type E. coli NCM3722, growth: C-lim chemostat, doubling time 3 h
[6] = wild type E. coli NCM3722, growth: C-lim chemostat, doubling time 6 h
[7] = wild type E. coli NCM3722, growth: C-lim chemostat, doubling time 12 h
[8] = wild type E. coli NCM3722, growth: N-lim chemostat, doubling time 6 h
[9] = wild type E. coli NCM3722, growth: N-lim chemostat, doubling time 12 h
[10] = wild type E. coli NCM3722, growth: P-lim chemostat, doubling time 6 h
[11] = wild type E. coli NCM3722, growth: P-lim chemostat, doubling time 12 h
[12] = E. coli NCM3722 delta-clpP, growth: N-lim chemostat, doubling time 6 h

Sequence	total protein half-life in vivo [1] [h]	total protein half-life in vivo [2] [h]	total protein half-life in vivo [3] [h]	total protein half-life in vivo [4] [h]	total protein half-life in vivo [5] [h]	total protein half-life in vivo [6] [h]	total protein half-life in vivo [7] [h]	total protein half-life in vivo [8] [h]	total protein half-life in vivo [9] [h]	total protein half-life in vivo [10] [h]	total protein half-life in vivo [11] [h]	total protein half-life in vivo [12] [h]
MLLAGSSLLTLLDDIATLLDDISVMGKLAAKKTAGVLGDDLSLNAQQVSGVRANRELPVVWGVAKGSLINKVILVPLALIISAFIPWAITPLLMIGGAFLCFEGVEKVLHMLEARKHKEDPAQSQQRLEKLAAQDPLKFEKDKIKGAIRTDFILSAEIVAITLGIVAEAPLLNQVLVLSGIALVVTVGVYGLVGVIVKIDDLGYWLAEKSSALMQALGKGLLIIAPWLMKALSIVGTLAMFLVGGGIVVHGIAPLHHAIEHFAGQQSAVVAMILPTVLNLILGFIIGGIVVLGVKAVEKMRGQAH	5.24 ± 0.46	5.53 ± 0.22	5.52 ± 0.47	5.54 ± 0.83	3.16 ± 0.37	5.92 ± 1.3	10.3 ± 1.3	5.79 ± 0.4	12.22 ± 0.064	5.22 ± 0.29	10.4 ± 0.92	
MRHIFQRLLPRRLWLAGLPCLALLGCVQNHNKPAIDTPAEEKIPVYQLADYLSTECSDIWALQGKSTETNPLYWLRAMDCADRLMPAQSRQQARQYDDGSWQNTFKQGILLADAKITPYERRQLVARIEALSTEIPAQVRPLYQLWRDGQALQLQLAEERQRYSKLQQSSDSELDTLRQQHHVLQQQLELTTRKLENLTDIERQLSTRKPAGNFSPDTPHESEKPAPSTHEVTPDEP [P0AD44]	6.11 ± 0.099	6.18 ± 0.37	6.9 ± 0.22	6.12 ± 0.2	3.34 ± 0.092	6.14 ± 0.27	13.1 ± 0.57	6.28 ± 1	14 ± 1.2		12.2 ± 3.1	6.44 ± 0.17
MQKNAAHTYAISSLLVLSLTGCAWIPSTPLVQGATSAQPVPGPTPVANGSIFQSAQPINYGYQPLFEDRRPRNIGDTLTIVLQENVSASKSSSANASRDGKTNFGFDTVPRYLQGLFGNARADVEASGGNTFNGKGGANASNTFSGTLTVTVDQVLVNGNLHVVGEKQIAINQGTEFIRFSGVVNPRTISGSNTVPSTQVADARIEYVGNGYINEAQNMGWLQRFFLNLSPM [P0A6S0]	4.87 ± 0.27				2.82 ± 0.29	4.64 ± 0.58	7.92 ± 0.56	4.97	9.12	5.6	11.5 ± 0.65	5.09 ± 0.14
MSKRTFAVILTLLCSFCIGQALAGGIVLQRTRVIYDASRKEAALPVANKGAETPYLLQSWVDNIDGKSRAPFIITPPLFRLEAGDDSSLRIIKTADNLPENKESLFYINVRAIPAKKKSDDVNANELTLVFKTRIKMFYRPAHLKGRVNDAWKSLEFKRSDHSLNIYNPTEYYVVFAGLAVDKTDLTSKIEYIAPGEHKQLPLPASGGKNVKWAAINDYGGSSGTETRPLQ		6.17										
MIKKASLLTACSVTAFSAWAQDTSPDTLVVTANRFEQPRSTVLAPTTVVTRQDIDRWQSTSVNDVLRRLPGVDITQNGGSGQLSSIFIRGTNASHVLVLIDGVRLNLAGVSGSADLSQFPIALVQRVEYIRGPRSAVYGSDAIGGVVNIITTRDEPGTEISAGWGSNSYQNYDVSTQQQLGDKTRVTLLGDYAHTHGYDVVAYGNTGTQAQTDNDGFLSKTLYGALEHNFTDAWSGFVRGYGYDNRTNYDAYYSPGSPLLDTRKLYSQSWDAGLRYNGELIKSQLITSYSHSKDYNYDPHYGRYDSSATLDEMKQYTVQWANNVIVGHGSIGAGVDWQKQTTTPGTGYVEDGYDQRNTGIYLTGLQQVGDFTFEGAARSDDNSQFGRHGTWQTSAGWEFIEGYRFIASYGTSYKAPNLGQLYGFYGNPNLDPEKSKQWEGAFEGLTAGVNWRISGYRNDVSDLIDYDDHTLKYYNEGKARIKGVEATANFDTGPLTHTVSYDYVDARNAITDTPLLRRAKQQVKYQLDWQLYDFDWGITYQYLGTRYDKDYSSYPYQTVKMGGVSLWDLAVAYPVTSHLTVRGKIANLFDKDYETVYGYQTAGREYTLSGSYTF	6.44 ± 0.73	6.84 ± 0.059	6.49 ± 0.47	6.07 ± 0.27	3.26 ± 0.15	6.12 ± 0.2	12.3 ± 0.2	6.29 ± 0.28	13.5 ± 1.7	6.23 ± 0.18	12.8 ± 0.14	6.76 ± 0.089
MNSLQILSFVGFTLLVAVITWWKVRKTDTGSQQGYFLAGRSLKAPVIAASLMLTNLSTEQLVGLSGQAYKSGMSVMGWEVTSAVTLIFLALIFLPRYLKRGIATIPDFLEERYDKTTRIIIDFCFLIATGVCFLPIVLYSGALALNSLFHVGESLQISHGAAIWLLVILLGLAGILYAVIGGLRAMAVADSINGIGLVIGGLMVPVFGLIAMGKGSFMQGIEQLTTVHAEKLNSIGGPTDPLPIGAAFTGLILVNTFYWCTNQGIVQRTLASKSLAEGQKGALLTAVLKMLDPLVLVLPGLIAFHLYQDLPKADMAYPTLVNNVLPVPMVGFFGAVLFGAVISTFNGFLNSASTLFSMGIYRRIINQNAEPQQLVTVGRKFGFFIAIVSVLVAPWIANAPQGLYSWMKQLNGIYNVPLVTIIIMGFFFPRIPALAAKVAMGIGIISYITINYLVKFDFHFLYVLACTFCINVVVMLVIGFIKPRATPFTFKDAFAVDMKPWKNVKIASIGILFAMIGVYAGLAEFGGYGTRWLAMISYFIAAVVIVYLIFDSWRHRHDPAVTFTPDGKDSL	3.19											
MFHCPLCQHAAHARTSRYITDTTKERYHQCQNVNCSATFITYESVQRYIVKPGEVHVVRPHPLPSGQQIMWM	5.58 ± 1.3											
MESIEQQLTELRTTLRHHEYLYHVMDAPEIPDAEYDRLMRELRELETKHPELITPDSPTQRVGAAPLAAFSQIRHEVPMLSLDNVFDEESFLAFNKRVQDRLKNNEKVTWCCELKLDGLAVSILYENGVLVSAATRGDGTTGEDITSNVRTIRAIPLKLHGENIPARLEVRGEVFLPQAGFEKINEDARRTGGKVFANPRNAAAGSLRQLDPRITAKRPLTFFCYGVGVLEGGELPDTHLGRLLQFKKWGLPVSDRVTLCESAEEVLAFYHKVEEDRPTLGFDIDGVVIKVNSLAQQEQLGFVARAPRWAVAFKFPAQEQMTFVRDVEFQVGRTGAITPVARLEPVHVAGVLVSNATLHNADEIERLGLRIGDKVVIRRAGDVIPQVVNVVLSERPEDTREVVFPTHCPVCGSDVERVEGEAVARCTGGLICGAQRKESLKHFVSRRAMDVDGMGDKIIDQLVEKEYVHTPADLFKLTAGKLTGLERMGPKSAQNVVNALEKAKETTFARFLYALGIREVGEATAAGLAAYFGTLEALEAASIEELQKVPDVGIVVASHVHNFFAEESNRNVISELLAEGVHWPAPIVINAEEIDSPFAGKTVVLTGSLSQMSRDDAKARLVELGAKVAGSVSKKTDLVIAGEAAGSKLAKAQELGIEVIDEAEMLRLLGS	6.33 ± 0.46	5 ± 0.61	5.11 ± 0.22	4.28 ± 0.047	2.8 ± 0.23	5.68 ± 1.1	9.65 ± 0.5	4.64 ± 0.15	8.04 ± 0.3	4.92 ± 0.57	8.66 ± 0.66	5.67 ± 0.88
MSKNYHIAVLPGDGIGPEVMTQALKVLDAVRNRFAMRITTSHYDVGGAAIDNHGQPLPPATVEGCEQADAVLFGSVGGPKWEHLPPDQQPERGALLPLRKHFKLFSNLRPAKLYQGLEAFCPLRADIAANGFDILCVRELTGGIYFGQPKGREGSGQYEKAFDTEVYHRFEIERIARIAFESARKRRHKVTSIDKANVLQSSILWREIVNEIATEYPDVELAHMYIDNATMQLIKDPSQFDVLLCSNLFGDILSDECAMITGSMGMLPSASLNEQGFGLYEPAGGSAPDIAGKNIANPIAQILSLALLLRYSLDADDAACAIERAINRALEEGIRTGDLARGAAAVSTDEMGDIIARYVAEGV	3.45 ± 0.8	2.43 ± 0.12	2.96 ± 0.089	2.527 ± 0.018	3.23 ± 0.31	5.057 ± 0.042	8.72 ± 1.7	2.54 ± 0.19	3.52 ± 0.11	5.34 ± 0.7	9.08 ± 0.2	2.56 ± 0.42
MHQSGSVSLCRSAISVLVATALYSPIALASTVEYGETVDGVVLEKDIQLVYGTANNTKINPGGEQHIKEFGVSNNTEINGGYQYIEMNGAAEYSVLNDGYQIVQMGGAANQTTLNNGVLQVYGAANDTTIKGGRLIVEKDGGAVFVAIEKGGLLEVKEGGFAFAVDQKAGGAIKTTTRAMEVFGTNRLGQFDIKNGIANNMLLENGGSLRVEENDFAYNTTVDSGGLLEVMDGGTVTGVDKKAGGKLIVSTNALEVSGPNSKGQFSIKDGVSKNYELDDGSGLIVMEDTQAIDTILDKHATMQSLGKDTGTKVQANAVYDLGRSYQNGSITYSSKAISENMVINNGRANVWAGTMVNVSVRGNDGILEVMKPQINYAPAMLVGKVVVSEGASFRTHGAVDTSKADVSLENSVWTIIADITTTNQNTLLNLANLAMSDANVIMMDEPVTRSSVTASAENFITLTTNTLSGNGNFYMRTDMANHQSDQLNVTGQATGDFKIFVTDTGASPAAGDSLTLVTTGGGDAAFTLGNAGGVVDIGTYEYTLLDNGNHSWSLAENRAQITPSTTDVLNMAAAQPLVFDAELDTVRERLGSVKGVSYDTAMWSSAINTRNNVTTDAGAGFEQTLTGLTLGIDSRFSREESSTIRGLIFGYSHSDIGFDRGGKGNIDSYTLGAYAGWEHQNGAYVDGVVKVDRFANTIHGKMSNGATAFGDYNSNGAGAHVESGFRWVDGLWSVRPYLAFTGFTTDGQDYTLSNGMRADVGNTRILRAEAGTAVSYHMDLQNGTTLEPWLKAAVRQEYADSNQVKVNDDGKFNNDVAGTSGVYQAGIRSSFTPTLSGHLSVSYGNGAGVESPWNTQAGVVWTF	5.12											
MTTRLTRWLTTLDNFEAKMAQLPAVRRYGRLTRATGLVLEATGLQLPLGATCVIERQNGSETHEVESEVVGFNGQRLFLMPLEEVEGVLPGARVYAKNISAEGLQSGKQLPLGPALLGRVLDGSGKPLDGLPSPDTTETGALITPPFNPLQRTPIEHVLDTGVRPINALLTVGRGQRMGLFAGSGVGKSVLLGMMARYTRADVIVVGLIGERGREVKDFIENILGAEGRARSVVIAAPADVSPLLRMQGAAYATRIAEDFRDRGQHVLLIMDSLTRYAMAQREIALAIGEPPATKGYPPSVFAKLPALVERAGNGISGGGSITAFYTVLTEGDDQQDPIADSARAILDGHIVLSRRLAEAGHYPAIDIEASISRAMTALISEQHYARVRTFKQLLSSFQRNRDLVSVGAYAKGSDPMLDKAIALWPQLEGYLQQGIFERADWEASLQGLERIFPTVS	3.91				2.04 ± 0.092	3.72	4.73 ± 0.2					
MKRLRNKMTTEELAECLGVAKQTVNRWIREKGWKTEKFPGVKGGRARLILVDTQVCEFIQNTPAFHNTPMLMEAEERIAEYAPGARAPAYRQIINAIDNMTDIEQEKVAQFLSREGIRNFLARLDIDESA	6.16 ± 0.29				2.58 ± 0.081	4.56	7.65 ± 1		4.62		4.26	
MLIIKRSVAIIAILFSPLSTASNLTSQLHNFFSAQLAGVSDEVRVSIRTAPNLLPPCEQPLLSMSNNSRLWGNVNVLARCGNDKRYLQVNVQATGNYVVAAMPIARGGKLEAGNVKLKRGRLDTLPPRTVLDINQLVDAISLRDLSPDQPIQLTQFRQAWRVKAGQRVNVIASGDGFSANAEGQALNNAAVAQNARVRMVSGQVVSGVVDADGNILINL					0.905 ± 0.37		2.23					
MGAELVKWVKSHKIDAHIITFVAKMPYIDSIKLLEAGAKGCVWKTSHPAKLNRAIDSISNGYTYFDSVHMDCEKISSRYSSDNQLTNRESEILQLIADGKTNKEIANFLQLSRKTVETHRLNIMKKLDVHSGIELIKTALRMGVCTI	5.42		5.01	5.08 ± 0.25	2.7	4.55 ± 1.5	8.41 ± 2.9	5.22 ± 0.2				
MSNAQEAVKTRHKETSLIFPVLALVVLFLWGSSQTLPVVIAINLLALIGILSSAFSVVRHADVLAHRLGEPYGSLILSLSVVILEVSLISALMATGDAAPTLMRDTLYSIIMIVTGGLVGFSLLLGGRKFATQYMNLFGIKQYLIALFPLAIIVLVFPMALPAANFSTGQALLVALISAAMYGVFLLIQTKTHQSLFVYEHEDDSDDDDPHHGKPSAHSSLWHAIWLIIHLIAVIAVTKMNASSLETLLDSMNAPVAFTGFLVALLILSPEGLGALKAVLNNQVQRAMNLFFGSVLATISLTVPVVTLIAFMTGNELQFALGAPEMVVMVASLVLCHISFSTGRTNVLNGAAHLALFAAYLMTIFA				6.69			> 16			6.87		> 8
